# From doi:10.1101/775726, “How the dual PDZ domain from Postsynaptic density protein 95 clusters ion channels and receptors” (bioRxiv, 2019)
# B1: RRESEI peptide (last 6 residues of Kir2.1) (peptide)
# peptide: RRESEI
# notes: last 6 residues of the inwardly rectifying potassium channel Kir2.1 (C-terminus, type I PDZ motif ESEI); also called RRESEI ligand; ligand peptide; source: synthetic peptide, 98% purity (Peptide Protein Research Ltd.)
# Columns and labels:
# Assay in all cases: ITC; 5 mM RRESEI in the syringe, PDZ1-2, PDZ1 or PDZ2 in the cell at nominal 0.13 mM; 25°C; 20 mM Tris-HCl, 150 mM NaCl, pH8.5; MicroCal VP-ITC; PDZ1-2 fitted assuming a single class of sites
# Conditions in all cases: both partners purified
# [1] = target: T1, PSD-95 PDZ1-2 dual domain (residues 55-249) (human, UniProt P78352 55-249)
# T1 construct: PSD-95 (Disks large homologue 4, SAP-90), human, residues 55-249 of UniProt P78352 [98-292 of P78352-2]; PDZ1, 8-residue linker, PDZ2; cleaved construct 20.8 kDa; ends printed as NGT- and -SNA; Vector pOPINF; SASBDB entries: apo SASDGE5, SASDGF5, SASDGG5; with GSH SASDGH5, SASDGJ5, SASDGK5; also called apo:PDZ1-2; dual PDZ domain; source: E. coli BL21(DE3), purified (Ni-NTA, HRV 3C tag cleavage, …)
# [2] = target: T2, PSD-95 PDZ1 domain (residues 55-152) (human, UniProt P78352 55-152)
# T2 construct: Gly-Pro left at the N-terminus after HRV 3C cleavage of the tag; PSD-95, human, PDZ1, residues 55-152 of UniProt P78352 [98-195 of P78352-2]; Vector pOPINF; source: E. coli BL21(DE3), purified (Ni-NTA, HRV 3C tag cleavage, negative Ni-NTA, Superdex200 SEC); not shown: His6, N-terminal, cleaved
# [3] = target: T3, PSD-95 PDZ2 domain (residues 154-249) (human, UniProt P78352 154-249)
# T3 construct: Gly-Pro left at the N-terminus after HRV 3C cleavage of the tag; PSD-95, human, PDZ2, residues 154-249 of UniProt P78352 [197-292 of P78352-2]; Vector pOPINF; source: E. coli BL21(DE3), purified (Ni-NTA, HRV 3C tag cleavage, negative Ni-NTA, Superdex200 SEC); not shown: His6, N-terminal, cleaved
# T3 sequence (P78352 other isoform, or with tags, fused parts or gaps): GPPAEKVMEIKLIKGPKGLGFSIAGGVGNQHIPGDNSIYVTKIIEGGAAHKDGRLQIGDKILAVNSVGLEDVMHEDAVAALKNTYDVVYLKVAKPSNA
# T1 sequence (P78352 other isoform, or with tags, fused parts or gaps): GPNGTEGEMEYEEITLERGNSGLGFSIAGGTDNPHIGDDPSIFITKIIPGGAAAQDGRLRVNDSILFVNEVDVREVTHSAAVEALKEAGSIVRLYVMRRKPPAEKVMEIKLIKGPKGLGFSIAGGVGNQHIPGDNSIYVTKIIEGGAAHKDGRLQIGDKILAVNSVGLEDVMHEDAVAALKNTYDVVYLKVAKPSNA
# T2 sequence (P78352 other isoform, or with tags, fused parts or gaps): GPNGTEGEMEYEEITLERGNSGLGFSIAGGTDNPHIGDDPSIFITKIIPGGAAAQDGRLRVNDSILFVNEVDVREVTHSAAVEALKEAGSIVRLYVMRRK
binder,measurement,setting,value
B1,Kd,[1],90 ± 9 µM
same,Kd,[2],6 ± 6 µM
same,Kd,[3],60 ± 2 µM
